{
  "source": "paper PMC2678197",
  "about": "(2009)",
  "assay_in_all_cases": "NMR",
  "key": {"CCR3 peptide Su16 8-23": {"molecular_target": "T1, CCR3 peptide Su16 8-23 (Homo sapiens, UniProt P51677)", "T1 chain": "VETFGTTS[sY]YDDVGLL"}, "CCR3 peptide Su0 8-23": {"molecular_target": "T2, CCR3 peptide Su0 8-23 (Homo sapiens, UniProt P51677)", "T2 chain": "VETFGTTSYYDDVGLL"}, "CCR3 peptide Su17 8-23": {"molecular_target": "T3, CCR3 peptide Su17 8-23 (Homo sapiens, UniProt P51677)", "T3 chain": "VETFGTTSY[sY]DDVGLL"}},
  "note": "Where no end group is shown, it is not given here. [ ]: non-standard residue; d: D form. sY = N[C@@H](Cc1ccc(OS(=O)(=O)O)cc1)C(=O)O",
  "data": [
    {"binder": "eotaxin (protein) not shown", "values": [
      {"measurement": "Kd", "setting": "CCR3 peptide Su16 8-23", "value": "< 5", "unit": "µM"},
      {"measurement": "Kd", "setting": "CCR3 peptide Su0 8-23", "value": 140, "unit": "µM"},
      {"measurement": "Kd", "setting": "CCR3 peptide Su17 8-23", "value": 22, "unit": "µM"}
    ]}
  ]
}
